Laboratory results from patent publication US20230331816A1, “A METHOD FOR PREPARING PORCINE MYOGLOBIN USING ESCHERICHIA COLI” (iNtRON Biotechnology, Inc., priority 2020, published 2023).

System: iron-deficiency-anemia-induced animals
Type: in vivo, Sprague-Dawley rats
Description: The composition containing porcine myoglobin prepared according to the present invention was administered to iron-deficiency-anemia-induced animals, whereby the effectiveness of the composition containing porcine myoglobin on alleviating anemia was evaluated. Specifically, after 2 weeks acclimation period, thirty 9-week old Sprague-Dawley rats (female) were divided into 3 groups of 10 rats per group, among which one group was fed with normal feed in an amount of 10% of body weight daily for […] (Group 1; control), and the remaining two groups were fed with iron-deficient feed in an amount of 10% of body weight daily for 6 weeks to induce iron-deficiency anemia (Group 2 and Group 3). After 6 weeks of feeding, it was confirmed that iron-deficiency anemia was induced in the individual rat belonging to Group 2 and Group 3. Then, one of the anemia-induced groups was orally administered once a day with saline alone (Group 2), and the other anemia-induced group was orally administered once a day with solution containing porcine myoglobin (0.1 mg Fe/500 μl solution, Group 3). The administration continued for 5 weeks. During 5 weeks of administration to Group 2 and Group 3, Group 1 was continuously fed with normal feed, and Group 2 and Group 3 were fed with iron-deficient feed. […] After 5 weeks of administration, blood was collected, and whether anemia was alleviated was evaluated.

[1] = female Sprague-Dawley rats on iron-deficient feed, oral once a day, 0.1 mg Fe/500 μl solution, 5 weeks

B1: porcine myoglobin: porcine myoglobin consisting of a globin of SEQ ID NO: 1 and a heme of formula 1, made with Escherichia coli (protein)
chain: MGLSDGEWQLVLNVWGKVEADVAGHGQEVLIRLFKGHPETLEKFDKFKHLKSEDEMKASEDLKKHGNTVLTALGGILKKKGHHEAELTPLAQSHATKHKIPVKYLEFISEAIIQVLQSKHPGDFGADAQGAMSKALELFRNDMAAKYKELGFQG
modifications: heme; Porcine myoglobin
Effectiveness at alleviating iron-deficiency anemia (conclusion from blood analysis after 5 weeks of administration): effective at alleviating iron-deficiency anemia
Blood test: Hematocrit [1]: 39.8 ± 1.0%
Blood test: Hemoglobin content [1]: 13.7 ± 0.6 g/dL
Weight of rats on 5 weeks after administration [1]: 327.2 ± 3.1 g
